B1: Ab_14 (scFv, V domains shown)
VH: QVQLQQSGPGLVKPSQTLSLTCAISGDSVSSNSAAWNWIRQSPARGLEWLGRTYYRSRWYNDYAISMKSRITINPDTSKNQFSLQLESVTPEDTAVYYCAREIRGFDYWGQGTLVTVSS
VL: QSVLTQPPSASGSPGQSVTISCTGTSSDVGAYNFVSWYQHHPGKAPKLIIYDFNKRPSGVPDRFSGSKSGNTASLTVSGLQADDEADYYCSSYAGSNNFDVVFGGGTKLTVL
B2: Ab 27 (scFv, V domains shown)
VH: QVQLVQSGTEVKKPGASVKVSCKASGYSFTGSHLHWVRQAPGQGLEWMGWINPDSGVINYAQKFQGRVTLTRDTSISTAYMELSGLRSDDTAVYYCARDKAIGYVWALDYWGQGTLVTVSS
VL: QSALTQPPSVSGSPGQSVTISCTGTSSDVGTYNRVSWYQQPPGKAPKLMIYEVSNRPSGVSNRFSGSKSGNTASLTISGLQAEDEADYYCSSYTRTFTYVFGTGTKVTVL
B3: Ab 26 (scFv, V domains shown)
VH: QVQLVQSGGGLVQPGRSLRLSCAASGFTFDDYAMHWVRQVPGKGLEWVSGIDWNSGVIGYADSVKGRFTISRDNAKNSLYLQMNSLRAEDTALYYCAKDAYSYGFLGAFDIWGQGTMVTVSS
VL: LPVLTQPPSVSVAPGQTASITCGGDNIRTKGVHWYQQKPGQAPLLVIYYASDRPSGIPERFSGSSSGNTATLTISRVEAGDEADYYCQVWDSSSDLVVFGGGTTLTVL
B4: S1-RBD-R3-T1-E2 (Ab7) (scFv, V domains shown)
VH: QVQLVQSGGGLVQPGRSLRLSCAASGFTFDDYAMHWVRQVPGKGLEWVSGIDWNSGVIGYADSVKGRFTISRDNAKNSLYLQMNSLRAEDTALYYCAKDAYSYGFLGAFDIWGQGTMVTVSS
VL: QPGLTQPPSVSVAPGQTARISCGGNNIGSKSVHWYQQKPGRAPVLVVYEDRGRPSGIPERFSGSNSGNTATLTVSRVEAGDEADYYCQVWDGDSDHYVFATGTKVSIL
B5: Ab 21 (scFv, V domains shown)
VH: QVQLVQSGGGLVQPGGSLRLSCATSGFTFDDYAMHWVRQAPGKGLEWVSGISWNSGSIGYVDSVKGRFTISRDNRNNKVYLQMNNLRAEDTAVYYCARDWWGSIDHWGLGTLVTVSS
VL: QSALTQPRSVSGSPGQSVTISCTGTSSDVGGYDYVSWYQQHPGKAPKLIIYDVSKRPSGVPDRFSGSKSGNTASLTVSGLQAEDEADYYCSSYTSSSPVVFGGGTKLTVL
B6: Ab_18 (scFv, V domains shown)
VH: EVQLVQSGGGVVQPGRSLRVSCAASGFSFSRYGMHWVRQAPGKGLEWVAFIRHDGSKKYYADSVEGRFTISRDNSRNTVSLEMNSLRGEDTAVYYCAKDGRLEAALDDWGQGTLVTVSS
VL: NFMLTQPHSMSGSAGKTVTVSCIRSSGSIANNFVQWYQQRPGSAPTTVIYEDNQRPSGVPDRFSGSIDSSSNSASLTISGLKTEDEADYYCQSYDSSNLVFGGGTRLTVL
B7: S1-RBD-R3-T1-D7 Ab (Ab_34) (scFv, V domains shown)
VH: QVQLVQSGVEVKKPGESLKISCKGSGYSFTSYWIGWVRQMPGKGLEWMGIIYPGDSDTRYSPSFQGQVTISADKSISTAYLQWSSLKASDTAMYYCARTTYSYGSFDYWGQGTLVTVSS
VL: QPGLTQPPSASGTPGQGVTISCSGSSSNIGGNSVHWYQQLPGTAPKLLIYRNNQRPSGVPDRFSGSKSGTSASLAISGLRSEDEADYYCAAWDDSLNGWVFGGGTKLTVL
B8: Ab_19 (scFv, V domains shown)
VH: EVQLVESGAEVKKPGESLKISCKGSGYSFTSYWIGWVRQMPGKGLEWMGIIYPGDSDTRYSPSFQGQVTISADKSISTAYLQWSSLKASDTAMYYCARRGDLDAFDIWGQGTMVTVSS
VL: QPGLTQPPAASGTPGQRVTVSCSGASANIGSNAVSWFKQFPETAPRLLISGNTHRPSGVPDRVSGSKSGTSASLTISGLQSDDEADYYCAAWDDSLNGYVFGSGTKVTVL
B9: Ab 20 (scFv, V domains shown)
VH: QVQLVQSGGGSVKPGGSLRLSCAASGYRLSDYYMHWVRQAPGKGLEWVANIKQDGSEKYYVDSVKGRFTISRDNAKNSLYLQMNSLRAEDTAVYYCARVRGWSRGYFDYWGQGTLVTVSS
VL: NFMLTQPHSVSESPGKTVTISCTGSSGSIASNYVQWYQQRPGSAPTTVIYEDNQRPSGVPDRFSGSIDSSSNSASLLISGLKTEDEADYYCQSYDSSNHWVFGGGTKLTVL
B10: S1-RBD-R3-T1-B12 Ab (Ab_31) (scFv, V domains shown)
VH: QVQLVQSGAEVKKPGSSVKVSCKASGGTFSSYTISWVRQAPGQGLEWMGGIIPILGTPNYAQKFQDRVAITADKSTSTAYMELSSLRSEDTAVYYCAVGSGWYSGFDYWGQGTLVTVSS
VL: NFMLTQPHSVSESPGKTVTISCTGSSGSIASNYVQWYQQRPGSAPTTVIYEDSQRPSGVPDRFSGSIDSSSNSASLTISGLKTEDEADYYCQSFHNSNPVIFGGGTKLTVL
B11: Ab 28 (scFv, V domains shown)
VH: QVTLKESGPGLVNPSETLSLTCTVSGASISNSFWSWIRQSPGKGLEWIGYTSYSGNSIYNPSLKSRLTMSIDTSKNQLSLNLRSLTAADTAVYYCARREWIKGHFDYWGQGTLVTVSS
VL: NFMLTQPHSVSESPGKTVTISCTGSGGSIASNYVQWYQQRPGSAPTTVIYEDNQRPSGVPDRFSGSIDSSSNSASLTISGLKTEDEADYYCQSYDSSNPVVFGGGTKLTVL
B12: Ab 25 (scFv, V domains shown)
VH: QVQLVQSGGGLVQPGGSLRLSCAASGFTFSSYWMSWVRQAPGKGLEWVANIKQDGSEKYYVDSVKGRFTISRDNAKNSLYLQMNSLRAEDTAVYYCARGFYYYGAFDIWGQGTTVTVSS
VL: NFMLTQPHSVSESPGKTVTISCTGSSGSIASNYVQWYQQRPGSAPTTVIYEDNQRPSGVPDRFSGSIGSSSNSASLTISGLKTEDEADYYCQSYDSSNHWVFGGGTKLTVL
B13: S1-RBD-R3-T1-F5 (Ab2-7) (scFv, V domains shown)
VH: QVTLKESGPTRVKPTQTLTLTCTFSGFSLSTTGVGVGWIRQPPGKALEWLALIYWNDDKRYSPSLKSRLTITKDTSKNQVVLTMTNMDPVDTATYYCARISGSGYFYPFDIWGQGTTVTVSS
VL: NFMLTQPHSVSESPGKTVTISCTRSSGSIASNYVQWYQQRPGSSPTTVIYEDNQRPSGVPDRFSGSIDSSSNSASLTISGLKAEDEADYYCQSYDSSSLWVFGGGTKLTVL
B14: Ab_13 (scFv, V domains shown)
VH: QVTLKESGPKLVKPTQTLTLTCTFSGFSLSTSGVGVGWIRQPPGKALEWLALIYWDDDKRYSPSLKSRLTIAKDTSKYQVVLTMTNMDPVDTATYYCARISGSGYFYPFDIWGQGTMVTVSA
VL: NFMLTQPHSVSESPGKTVTISCTRSSGSIASNYVQWYQQRPGSAPTTVIYEDNQRPSGVPDRFSGSIDSSSNSASLTISGLKTEDEADYYCQSYDSSNLWVFGGGTKLTVL
B15: RBD-R3-T1-H3 (Ab_2) (scFv, V domains shown)
VH: EVQLVQSGAEVKKPGSSVKVSCKTSGYTFTTSGISWVRQAPGQGLEWMGWISAYNGNTNYAQKLQGRVTMTTDTSTSTAYMELRSLRSDDTAVYYCARDFHLYYGMDVWGKGTLVTVSS
VL: QSALTQPPSASGSPGQSVTISCTGTSSDVGAYNYVSWYQQHPGKAPKLLIYDVTKRPPGVPDRFSGSKSGNTASLTVSGLQAEDEADYYCAVWDDGLNGRVVFGGGTKLTVL
B16: S1-R3-T1-C4 (Ab_8) (scFv, V domains shown)
VH: QVQLVQSGAEVKKPGSSVKVSCKASGGTFSSYAISWLRQAPGQGLEWMGWINPNSGGTNYAQKFQGRVTMTRDTSISTAYMELSRLRSDDTAVYYCARGSGGYYLGWGQGTLVTVSS
VL: QPGLTQPPSVSKGLRQTATLTCTGNSNNVGNQGAAWLQQHQGHPPKLLSYMNNNRPPGISERFSASRSGNTASLTITGLQPEDEADYYCSAWDSSLSRWVFGGGTKLSVL
B17: Ab_17 (scFv, V domains shown)
VH: QVQLVQSGGGVVQPGRSLRLSCAASGFTFDDYAMHWVRQVPGKGLEWVSGIDWNSGVIGYADSVKGRFTISRDNVKNSLYLQMNSLRTEDSALYYCAKDIGPGGSGSYYAFDIWGQGTTVTVSS
VL: QSALTQPASVSGSPGQSITISCTGTSSDVGGSKYVSWYQQHPGKAPKVMIYDVTKRPSGVPDRFSGSKSGNTASLTISGLQAEDEADYYCAAWDDSLNGVVFGGGTKLTVL
B18: RBD-R3-E1-B3 Ab (Ab_32) (scFv, V domains shown)
VH: QVQLVQSGAEVKKPGESLKISCKGSGYSFTSYWIGWVRQMPGKGLEWMGIIYPGDSDTRYSPSFQGQVTISADKSISTAYLQWSSLKASDTAMYYCARGWQWHDYWGQGTLVTVSS
VL: QTVVTQEPAVSVALGQTVRITCQGDSLRSYYASWYQQKPGQAPVLVVYDKDKRPSGIPDRFSGSTSGNTASLTITGAQAEDEADYYCNSRDRSDNHVVFGGGTKLTVL
B19: Ab 23 (scFv, V domains shown)
VH: EVQLVQSGAEVKKPGSSVKVSCRSSGGTFSTYGITWVRQAPGQGLEWMGRIIPSLGIPNYAQKFQGRVTITADTSVSTAWMELSSLESDDTAIYYCARENIDLATNDFWGQGTLVTVSS
VL: QSALTQPPSASGSPGQSVTISCTGTSRDIGAYGYVSWYQQVPGKAPKLIIYEVRNRPSGVSSRFSGSKSGNTASLTISGLQAEDEADYYCSSYTSSSTLDVVFGGGTKLTVL
B20: Ab_16 (scFv, V domains shown)
VH: QVQLVQSGGGVVQPGRSLRLSCAASGFTFSNYGMHWVRQAPGKGLEWVALIWERGSKKDYADSVKGRFTVSRDNSKNTLYLQMNSLRPEDTAVYFCAREGISMTGAEYFQHWGQGTLVTVSS
VL: QSVLTQPPSVSGSPGQRVTMSCTGSSSNIGAGYDVHWYQQVPGAAPRLLIYGTNNRPSGVPDRFSGSKSGTSASLTITGLQAEDEADYYCQSYDNSLTDPYVFGTGTKVTVL
B21: RBD-R3-E1-A5 Ab (Ab_30) (scFv, V domains shown)
VH: QVQLVQSGGGVVQPGKSLRLSCTASGFTFSDFPIHWVRQAPGKGLEWVGVISYDGNIKYYGDSVKGRFTISRDNAKNSLYLQMNSLRVEDTAVYYCARGGSSFDIWGQGTTVTVSS
VL: SYELTQPPSVSEAPRQRVTISCSGSTSNIGNNAVSWYQHLPGKAPKLLIYYNERLPSGVSDRFSGSKSGTSASLAISGLRSEDEADYYCAAWDDSLSGHVVFGGGTKLTVL
B22: S1-RBD-R3-T1-C7 Ab (Ab 29) (scFv, V domains shown)
VH: QVQLQQSGPGLVKPSQTLSLTCAISGDSVSSYSDAWNWIRQSPSRGLEWLGRTYYRSKWYNDYAVSVKSRITINPDTSKNQFSLQLSSVTPEDTAVYYCAREIVATTPFRNYYYGMDVWGQGTTVTVSS
VL: NFMLTQPHSVSESPGNTVTISCTRTSGSIASNYVQWYQQRPGSSPTTVIFQDKLRPSGVPDRFSGSIDSSSNSASLTISGLKTEDEADYYCQSYDSSSLWVFGGGTKLTVL

The binders below were run against D614G Spike (SARS-CoV-2, UniProt P0DTC2 16-1213).

B1 and B2 are within 1.5-fold of each other in Kd: 8.12 pM for the first, 7.53 pM for the second.

Going from B3 to B4, the Kd falls from 9.97 pM to 2.74 pM (3.6-fold).

B5 and B6 are within 1.5-fold of each other in Kd: 8 pM for the first, 6.33 pM for the second.

B7 and B8 are within 1.5-fold of each other in Kd: 9.15 pM for the first, 10.9 pM for the second.

B9 and B10 are within 1.5-fold of each other in Kd: 8.64 pM for the first, 9.03 pM for the second.

B11 and B12 are within 1.5-fold of each other in Kd: 9.41 pM for the first, 8.56 pM for the second.

B13 and B14 are within 1.5-fold of each other in Kd: 9.93 pM for the first, 8.1 pM for the second.

Going from B15 to B16, the Kd falls from 167 pM to 7.3 pM (23-fold).

B17 and B18 are within 1.5-fold of each other in Kd: 6.8 pM for the first, 7.26 pM for the second.

B19 and B20 are within 1.5-fold of each other in Kd: 8.82 pM for the first, 8.35 pM for the second.

First: B21
Second: B22
The Kd of the first is 7.1-fold higher: 7.43 pM for the first, 1.04 pM for the second.

Reference: patent US20230374114A1 (Dana-Farber, published 2023)
